For 17 molecules, Kd, koff and kon results are on record in patent US20250154261A1 (published 2025).

To fix the notation:
B1: ADI-10159 IgG (antibody, V domains shown)
VH: EVQLVESGGGLVQPGGSLRLSCAASGFTFSSYGMSWVRQAPGKGLEWVANIKQDGSEKYYVDSVKGRFTISRDNAKNSLYLQMNSLRAEDTAVYYCAREGGPYYDSSGYFVYYGMDVWGQGTTVTVSS
VL: DIQMTQSPSTLSASVGDRVTITCRASQSISSWLAWYQQKPGKAPKLLIYDASSLESGVPSRFSGSGSGTEFTLTISSLQPDDFATYYCQQYESFPTFGGGTKVEIK
notes: IgG; also called Ab1; G59
B2: ADI-10160 Fab (Fab, V domains shown)
VH: EVQLVESGGGLVQPGGSLRLSCAASGFTFSSYWMSWVRQAPGKGLEWVANINQDGSEKYYVDSVKGRFTISRDNAKNSLYLQMNSLRAEDTAVYYCAREANYYGNVGDDYWGQGTLVTVSS
VL: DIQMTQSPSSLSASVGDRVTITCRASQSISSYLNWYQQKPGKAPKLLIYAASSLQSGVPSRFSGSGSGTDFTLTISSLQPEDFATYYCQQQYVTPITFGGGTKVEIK
notes: Fab fragment; also called Ab15
B3: ADI-11825 Fab (Fab, V domains shown)
VH: B2 VH with S30G, S31G, K58E
VL: DIQMTQSPSSLSASVGDRVTITCRASQSIYNYLNWYQQKPGKAPKLLIYAASNLHSGVPSRFSGSGSGTDFTLTISSLQPEDFATYYCQQAFHVPITFGGGTKVEIK
notes: Fab fragment; also called Ab25
B4: ADI-11828 Fab (Fab, V domains shown)
VH: EVQLVESGGGLVQPGGSLRLSCAASGFTFSSYWMSWVRQAPGKGLEWVANINQDGSEVYYVDSVKGRFTISRDNAKNSLYLQMNSLRAEDTAVYYCARDVGPGIAYQGHFDYWGQGTLVTVSS
VL: B3 VL with N31Y, N53S, L54R, H55Q, A91V, F92Y, H93D, V94T, I96L
notes: Fab fragment; also called Ab27
B5: ADI-11830 Fab (Fab, V domains shown)
VH: B4 VH with Q53T
VL: B3 VL with S28V, N31S, N53S, H55K, A91V, F92Y, H93D, V94T, I96L
notes: Fab fragment; also called Ab9
B6: ADI-10164 Fab (Fab, V domains shown)
VH: QVQLQESGPGLVKPSETLSLTCAVSGYSISSGYYWGWIRQPPGKGLEWIGSIYHSGSTNYNPSLKSRVTISVDTSKNQFSLKLSSVTAADTAVYYCARLPPWFGFSYFDLWGRGTLVTVSS
VL: EIVLTQSPATLSLSPGERATLSCRASQSVSSYLAWYQQKPGQAPRLLIYDASNRATGIPARFSGSGSGTDFTLTISSLEPEDFAVYYCQQVDNYPPTFGGGTKVEIK
notes: Fab fragment; also called Ab18
B7: ADI-11807 Fab (Fab, V domains shown)
VH: EVQLVESGGGLVQPGGSLRLSCAASGFTFGSYWMSWVRQAPGKGLEWVATIKQDGSEKSYVDSVKGRFTISRDNAKNSLYLQMNSLRAEDTAVYYCARPLNAGELDVWGQGTMVTVSS
VL: DIQMTQSPSTLSASVGDRVTITCRASQSISSWLAWYQQKPGKAPKLLIYEASSLESGVPSRFSGSGSGTEFTLTISSLQPDDFATYYCQQSQSYPPITFGGGTKVEIK
notes: Fab fragment; also called Ab5; I07
B8: ADI-11809 Fab (Fab, V domains shown)
VH: B7 VH with G30P, Q53R, S59G
VL: B7 VL
notes: Fab fragment; also called Ab6
B9: ADI-10157 Fab (Fab, V domains shown)
VH: QVQLQESGPGLVKPSETLSLTCTVSGGSISSYYWSWIRQPPGKGLEWIGSIYYSGSTNYNPSLKSRVTISVDTSKNQFSLKLSSVTAADTAVYYCARVGGVYSTIETYGMDVWGQGTTVTVSS
VL: EIVMTQSPATLSVSPGERATLSCRASQSVSSNLAWYQQKPGQAPRLLIYGASTRATGIPARFSGSGSGTEFTLTISSLQSEDFAVYYCQQYTVYPPTFGGGTKVEIK
notes: Fab fragment; also called Ab13
B10: ADI-11835 Fab (Fab, V domains shown)
VH: QLQLQESGPGLVKPSETLSLTCTVSGGSISSTDYYWGWIRQPPGKGLEWIGSIGYSGTYYNPSLKSRVTISVDTSKNQFSLKLSSVTAADTAVYYCARETAHDVHGMDVWGQGTTVTVSS
VL: EIVLTQSPATLSLSPGERATLSCRASHSVYSYLAWYQQKPGQAPRLLIYDASNRATGIPARFSGSGSGTDFTLTISSLEPEDFAVYYCQQYDNLPTFGGGTKVEIK
notes: Fab fragment; also called Ab10; 135 (so in the source)
B11: ADI-11819 Fab (Fab, V domains shown)
VH: EVQLVESGGGLVKPGGSLRLSCAASGFTFSSYAMSWVRQAPGKGLEWVSSISSSSEGIYYADSVKGRFTISRDNAKNSLYLQMNSLRAEDTAVYYCAREGGPYYDSSGYFVYYGMDVWGQGTTVTVSS
VL: B1 VL with Q27N, D50E, L54T, E55K, E92D, S93D, F94L
notes: Fab fragment; also called Ab8
B12: ADI-10159 Fab (Fab, V domains shown)
VH: B1 VH
VL: B1 VL
notes: Fab fragment; also called Ab1; G59
B13: ADI-11815 Fab (Fab, V domains shown)
VH: QVQLVQSGAEVKKPGASVKVSCKASGYTFGTYYMHWVRQAPGQGLEWMGIINPSRGSTVYAQKFQGRVTMTRDTSTSTVYMELSSLRSEDTAVYYCARGAGYDDEDMDVWGKGTTVTVSS
VL: DIQMTQSPSSVSASVGDRVTITCRASQGIDSWLAWYQQKPGKAPKLLIYAASSLQSGVPSRFSGSGSGTDFTLTISSLQPEDFATYYCQQAHSYPLTFGGGTKVEIK
notes: Fab fragment; also called Ab7
B14: ADI-10161 Fab (Fab, V domains shown)
VH: EVQLVESGGGLVQPGGSLRLSCAASGFTFSSYWMSWVRQAPGKGLEWVANINQDGSEKYYVDSVKGRFTISRDNAKNSLYLQMNSLRAEDTAVYYCAREGGDSWYHAFDIWGQGTMVTVSS
VL: B13 VL with D30S, S53N, A91K, H92L, Y94L
notes: Fab fragment; also called Ab16
B15: ADI-11812 Fab (Fab, V domains shown)
VH: B13 VH with G30E, T31I, R55S
VL: B13 VL
notes: Fab fragment; also called Ab24
B16: ADI-11802 Fab (Fab, V domains shown)
VH: QVQLVQSGAEVKKPGASVKVSCKASGYTFSGYYMHWVRQAPGQGLEWMGMINPYGGSTRYAQKFQGRVTMTRDTSTSTVYMELSSLRSEDTAVYYCAREAADGFVGERYFDLWGRGTLVTVSS
VL: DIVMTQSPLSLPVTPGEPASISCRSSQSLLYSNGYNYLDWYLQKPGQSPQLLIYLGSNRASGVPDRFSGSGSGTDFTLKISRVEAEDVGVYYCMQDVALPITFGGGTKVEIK
notes: Fab fragment; also called Ab23
B17: ADI-11839 Fab (Fab, V domains shown)
VH: QVQLVQSGAEVKKPGASVKVSCKASGYTFSNYYMHWVRQAPGQGLEWMGWINPFSGGTRYAQKFQGRVTMTRDTSTSTVYMELSSLRSEDTAVYYCARDVGSSAYYYMDVWGKGTTVTVSS
VL: B13 VL with R24E, Q27K, D30S, S53D, H92F, S93L, Y94F, L96P
notes: Fab fragment; also called Ab28

What is called Kd is a measure of binding affinity in units of concentration. Read a low Kd as tighter binding. Usually koff stands for a measure of how fast the partners let go of each other. Low readings indicate slow dissociation, high ones fast dissociation. What is called kon is the second-order rate constant of association. The low end stands for slower complex formation, the high end for faster complex formation.

Changes are numbered by the printed parent chain.

One experiment addresses T1, human CD33 (antigen of the BLI measurement, Table 11) (human, UniProt P20138 18-259, limits assumed).
T1 construct: 100 nM antigen in solution; construct not described; whole entry named
As to the kind of experiment: BLI, IgG on AHC. In general terms: In BLI a coated tip is dipped into the sample, and binding shifts an interference pattern.
With B1, the Kd is 0.58 nM and the koff was 0.0002 s⁻¹.

The target of the next experiment is T2, Human CD33 R69G (human, UniProt P20138 18-259). Briefly: SPR captured Fab.
The molecule B2 had a Kd of 63.7 nM, a koff of 0.0533 s⁻¹ and a kon of 836000 M⁻¹ s⁻¹.

In turn, B3 came in with a Kd of 3.74 nM, a dissociation rate constant (koff) of 0.00695 s⁻¹ and a kon of 1.86e+06 M⁻¹ s⁻¹.

Consider B4, for which the Kd was 6.03 nM, the koff was found to be 0.007 s⁻¹ and the kon was found to be 1.16e+06 M⁻¹ s⁻¹.

For the molecule B5, the Kd was determined as 2.94 nM, the koff came to 0.00663 s⁻¹ and the kon came out at 2.27e+06 M⁻¹ s⁻¹.

In turn, B6 had a Kd of 113 nM, a koff of 0.035 s⁻¹ and a kon of 308000 M⁻¹ s⁻¹.

B7 displayed an equilibrium dissociation constant (Kd) of 0.43 nM, a koff of 0.000259 s⁻¹ and a kon of 597000 M⁻¹ s⁻¹.

In turn, B8 had a Kd of 0.22 nM, an off-rate (koff) of 0.000179 s⁻¹ and a kon of 815000 M⁻¹ s⁻¹.

With B9, the Kd worked out at 17.8 nM, the koff worked out at 0.0287 s⁻¹ and the kon came out at 1.56e+06 M⁻¹ s⁻¹.

As to B10, the Kd was determined as 0.67 nM, the koff is 0.00205 s⁻¹ and the kon came to 3.07e+06 M⁻¹ s⁻¹.

On to B11, for which the affinity, expressed as Kd, was 0.09 nM; the koff turned out to be 0.000244 s⁻¹; the kon is 2.78e+06 M⁻¹ s⁻¹.

Molecule B12 returned a Kd of 5.68 nM, a koff of 0.00243 s⁻¹ and a kon of 426000 M⁻¹ s⁻¹.

On to B13, for which binding was characterised by a dissociation constant (Kd) of 4.34 nM, the dissociation rate constant (koff) was found to be 0.0013 s⁻¹ and the kon worked out at 300000 M⁻¹ s⁻¹.

For B14, binding was characterised by a dissociation constant (Kd) of 48.9 nM, the koff came to 0.0307 s⁻¹ and the kon is 629000 M⁻¹ s⁻¹.

For B15, the Kd came to 6.74 nM, the koff was found to be 0.00228 s⁻¹ and the kon is 338000 M⁻¹ s⁻¹.

The next experiment addresses Human CD33 S128N (human, UniProt P20138 18-259). As to the kind of experiment: SPR captured Fab.
Molecule B2 registered a Kd of 85.7 nM, a koff of 0.0673 s⁻¹ and a kon of 786000 M⁻¹ s⁻¹.

B3 gave a Kd of 3.09 nM, a koff of 0.00649 s⁻¹ and a kon of 2.1e+06 M⁻¹ s⁻¹.

In turn, B4 returned a Kd of 5.41 nM, a koff of 0.00742 s⁻¹ and a kon of 1.37e+06 M⁻¹ s⁻¹.

Consider B16, for which the Kd stood at 0.809 nM, the koff turned out to be 0.00059 s⁻¹ and the kon came out at 662000 M⁻¹ s⁻¹.

Regarding B6, binding was characterised by a dissociation constant (Kd) of 279 nM, the koff amounted to 0.0539 s⁻¹ and the on-rate constant (kon) worked out at 193000 M⁻¹ s⁻¹.

B9 gave a Kd of 163 nM, a koff of 0.00924 s⁻¹ and a kon of 56500 M⁻¹ s⁻¹.

Turning to B14, binding was put at a Kd of 63.6 nM, the koff is 0.0385 s⁻¹ and the kon was found to be 605000 M⁻¹ s⁻¹.

For the molecule B17, the Kd amounted to 29.5 nM, the koff was 0.0284 s⁻¹ and the kon was 963000 M⁻¹ s⁻¹.

The molecule B15 yielded a Kd of 2.01 nM, a koff of 0.00112 s⁻¹ and a kon of 556000 M⁻¹ s⁻¹.

A further experiment addresses T2, Human CD33 R69G. Briefly: SPR captured Fab. This is another data set of the same source.
As to B13, the affinity, expressed as Kd, was 4.34 nM; the koff worked out at 0.0013 s⁻¹; the kon came to 300000 M⁻¹ s⁻¹.
